Results as given in publication PMC10053502.

Target: S. pneumoniae DNA topoisomerase I (TopoI), purified (S. pneumoniae)

“histidine-tagged StaR (H6-StaR), product of spr0929 of Streptococcus pneumoniae R6 (natural protein)” showed a relaxation of pBR322 by TopoI in vitro (37 °C, 1 h) with increasing StaR concentrations; percent of topoisomers (including OC/RC forms) at the highest StaR concentration (CCC form fell to 2.5%) of 97.5%.
